{"source": "patent US7192735", "target": "EntF (E. coli enterobactin synthetase component), apo form, P11454", "sequence (P11454 whole entry)": "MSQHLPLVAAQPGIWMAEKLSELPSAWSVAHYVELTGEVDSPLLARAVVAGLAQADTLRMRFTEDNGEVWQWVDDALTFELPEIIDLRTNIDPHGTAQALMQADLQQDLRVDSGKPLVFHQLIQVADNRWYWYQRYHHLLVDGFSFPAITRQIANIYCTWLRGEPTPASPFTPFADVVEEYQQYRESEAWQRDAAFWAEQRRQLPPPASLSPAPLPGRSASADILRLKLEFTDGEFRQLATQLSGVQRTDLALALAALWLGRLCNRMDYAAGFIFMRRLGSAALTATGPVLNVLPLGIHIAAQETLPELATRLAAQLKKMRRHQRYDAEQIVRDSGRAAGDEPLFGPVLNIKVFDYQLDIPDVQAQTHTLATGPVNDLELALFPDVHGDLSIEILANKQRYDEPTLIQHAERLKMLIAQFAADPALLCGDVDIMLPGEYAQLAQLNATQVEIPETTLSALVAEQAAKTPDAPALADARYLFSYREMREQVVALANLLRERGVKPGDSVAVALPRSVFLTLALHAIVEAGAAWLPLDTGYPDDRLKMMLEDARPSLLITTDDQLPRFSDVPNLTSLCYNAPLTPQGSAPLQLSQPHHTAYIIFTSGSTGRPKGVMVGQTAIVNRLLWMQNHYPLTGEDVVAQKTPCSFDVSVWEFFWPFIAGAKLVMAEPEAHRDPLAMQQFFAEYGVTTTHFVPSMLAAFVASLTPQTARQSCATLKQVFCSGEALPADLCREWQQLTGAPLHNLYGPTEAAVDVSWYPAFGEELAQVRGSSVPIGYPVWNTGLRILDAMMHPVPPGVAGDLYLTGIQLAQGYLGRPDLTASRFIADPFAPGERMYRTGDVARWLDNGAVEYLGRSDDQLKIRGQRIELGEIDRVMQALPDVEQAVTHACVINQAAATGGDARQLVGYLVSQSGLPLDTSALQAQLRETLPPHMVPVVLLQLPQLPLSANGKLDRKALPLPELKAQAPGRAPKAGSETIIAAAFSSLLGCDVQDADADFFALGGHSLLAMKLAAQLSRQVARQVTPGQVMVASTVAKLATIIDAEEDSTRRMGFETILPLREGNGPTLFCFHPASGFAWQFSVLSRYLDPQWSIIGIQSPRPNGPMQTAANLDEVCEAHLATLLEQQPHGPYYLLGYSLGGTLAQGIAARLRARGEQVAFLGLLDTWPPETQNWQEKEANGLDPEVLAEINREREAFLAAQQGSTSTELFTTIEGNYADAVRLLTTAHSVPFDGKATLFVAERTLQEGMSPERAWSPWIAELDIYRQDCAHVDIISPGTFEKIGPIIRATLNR"}
{"protein": "o195 (E. coli ORF of unknown function), recombinant from pET28b-o195 (protein) MYRIVLGKVSTLSAAPLPPGLREQAPQGPRRERWLAGRALLSHTLSPLPEIIYGEQGKPAFAPEMPLWFNLSHSGDDIALLLSDEGEVGCDIEVIRPRANWRWLANAVFSLGEHAEMDAVHPDQQLEMFWRIWTRKEAIVKQRGGSAWQIVSVDSTYHSSLSVSHCQLENLSLAICTPTPFTLTADSVQWIDSVN", "values": [{"measurement": "time course of incorporation of radiolabel into EntF", "result": "EntF undergoes almost no modification in the presence of 15-fold higher concentrations of ACPS and o195"}]}
